# In patent publication EP1073891B1, “METHOD OF PREDICTING RECEPTOR MODULATING ACTIVITY” (Duke University, priority 1998, dated 1999):
# Legend:
# Type in all cases: cell-based
# [1] = molecular target: T1, estrogen receptor α (ERα) (Homo sapiens, UniProt P03372); assay: LexA yeast two hybrid, β-galactosidase activity assay (Example 3)
# T1 construct: The full length estrogen receptor was subcloned in frame into the EcoRI and XhoI sites of pJG4-5; expressed in transfected cells; host or cells: Saccharomyces cerevisiae EGY48
# T1 sequence (P03372 1-595): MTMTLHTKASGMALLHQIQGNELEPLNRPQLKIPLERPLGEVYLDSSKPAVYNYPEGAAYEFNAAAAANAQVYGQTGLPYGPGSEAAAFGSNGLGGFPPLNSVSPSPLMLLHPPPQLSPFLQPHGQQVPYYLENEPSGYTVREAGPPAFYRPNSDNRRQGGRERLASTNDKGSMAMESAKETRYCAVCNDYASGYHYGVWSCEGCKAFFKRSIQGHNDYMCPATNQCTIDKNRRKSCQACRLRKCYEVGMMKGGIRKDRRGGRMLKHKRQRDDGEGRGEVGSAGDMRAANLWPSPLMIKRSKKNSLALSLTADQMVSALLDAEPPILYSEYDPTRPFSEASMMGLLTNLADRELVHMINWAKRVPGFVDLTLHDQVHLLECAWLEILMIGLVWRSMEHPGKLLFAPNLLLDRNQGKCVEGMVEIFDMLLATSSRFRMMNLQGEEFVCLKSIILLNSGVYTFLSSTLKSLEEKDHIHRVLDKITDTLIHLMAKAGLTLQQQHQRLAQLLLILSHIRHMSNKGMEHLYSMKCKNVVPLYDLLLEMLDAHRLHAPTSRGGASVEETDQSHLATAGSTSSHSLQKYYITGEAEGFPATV
# Source text: The LexA system that we employ utilizes a bacterial DNA binding protein domain, LexA, and a bacterially derived transcriptional activation sequence, B42. Proteins or peptides of interest are fused in frame with these domains and expressed using episomal plasmids in a yeast cell. The interactions between these proteins/peptides of interest are registered by monitoring the level of the reporter gene product, β-galactosidase, by an enzymatic assay. The differences in the levels of β-galactosidase activities reflect the relative strengths of the protein interactions.
# The yeast strains used in this study was EGY48 (MAT a trp1 his3 ura3 leu2::61exAops-LEU2) purchased from OriGeneTechnologies for yeast two hybrid analysis. This strain contains 6 LexA operators upstream of the LEU2 gene in the yeast genome and provides high sensitivity in detecting protein-protein interactions in the LexA two hybrid system. The plasmids used in this study were pEG202 (LexA-DNA binding domain), pJG4-5 (B42-activation domain), and the plasmid containing a β-galactosidase reporter, pJK103 (OriGene Technologies). The full length estrogen receptor was subcloned in frame into the EcoRI and XhoI sites of pJG4-5 to generate an ERα-B42 activation domain fusion. ERα was subcloned in the activation domain plasmid because ERα was able to autoactivate reporters when fused to the LexA DNA binding domain.
# The peptide sequences used in this study were generated from synthetic oligos filled in by T7 Sequenase (Life Science) and subcloned into the EcoRI-XhoI sites of pEG202. The synthetic oligos were: [formula] [formula] [formula] [formula] The complementary synthetic oligo used to generate double stranded DNA was 3'XhoPrim, 5'-[…]. Each 5'-oligo was annealed to the 3'-oligo by heating to 90 °C for 15 minutes and cooled slowly to 35 °C. T7 sequenase was added and the fill-in reaction allowed to proceed at 30 °C for 30 minutes. The reaction was terminated by heat denaturing the enzyme at 65 °C for 1 hour, restriction digests were performed and the resulting DNA fragments subcloned into pEG202 to generate peptide-LexA DNA binding domain fusions.
# The culture was diluted to ~2x10^6 cells/ml in the same media and allowed to grow at 30 °C until the cultures reached a density of ~1x10^7 cells/ml (∼4 hours). The yeast cells were pelleted by centurifugation, washed with extraction buffer (60 mM Na2HPO4, 40 mMNaH2PO4, 10 mM KCl, 1 mM MgSO4, 1mM PMSF, 7 mM 2-mercaptoethanol) and suspended in 200 µl of extraction buffer. 100 µl of acid-washed glass beads were added and cells were lysed by vigorous agitation for 10 minutes at 4 °C. Cellular debris was pelleted by centrifugation and the supernatant transferred to a clean tube. 10 µg of total cellular protein was diluted into complete Z buffer (60 mM Na2HPO4, 40 mMNaH2PO4 , 10 mM KCl, 1 mM MgSO4, 7 mM 2-mercaptoethanol) to a volume of 100 µl in a 96-well microplate. 80 µg of o-nitrophenyl-β-D-pyranoside (ONPG) in 20 µl was added to each well to initiate color development.
# 10µg of each protein extract was assayed for β-galactosidase activity using o-nitrophenyl-b-D-pyranoside as substrate. Activity units are defied as 1000* Abs405/minutes/mg/protein.
# Values are in beta-galactosidase units (MOD/min/mg)
# ERα-VP16 = molecular target: T2, ERα-VP16 (Homo sapiens, UniProt P03372); assay: Mammalian two-hybrid in HepG2 cells, Gal4-peptide fusions, luciferase reporter (Example 4.1); settings: Gal4-peptide fusion, various ligands (Fig. 7)
# T2 construct: expressed in transfected cells; host or cells: HepG2
# T2 sequence (P03372 1-595): T1 sequence (P03372 1-595)
# Source text: (§1) Peptide sequences representing each class was fused to the DNA binding domain (DBD) of the yeast transcription factor Ga14. HepG2 cells were then transiently transfected with expression vectors for ERα-VP16 and the Gal4-peptide fusion proteins. In addition, a luciferase reporter construct under the control of 5 copies of a Ga14 upstream enhancer element was also transfected along with a pCMV-β galactosidase vector to normalize for transfection efficiency. Transfection of the Ga14 DBD alone is included as control. Cells were then induced with various ligands as indicated in the figure and assayed for luciferase activity and β galactosidase activity. Normalized response was obtained by dividing the luciferase activity by the β galactosidase activity.
# [2] = molecular target: T3, estrogen receptor beta (ERβ-VP16) (Homo sapiens, UniProt Q92731); assay: Mammalian two-hybrid, specificity of peptide-nuclear receptor interaction (Example 4.2); settings: mammalian two-hybrid (Fig. 8)
# T3 construct: expressed in transfected cells
# T3 sequence (Q92731 whole entry, species assumed): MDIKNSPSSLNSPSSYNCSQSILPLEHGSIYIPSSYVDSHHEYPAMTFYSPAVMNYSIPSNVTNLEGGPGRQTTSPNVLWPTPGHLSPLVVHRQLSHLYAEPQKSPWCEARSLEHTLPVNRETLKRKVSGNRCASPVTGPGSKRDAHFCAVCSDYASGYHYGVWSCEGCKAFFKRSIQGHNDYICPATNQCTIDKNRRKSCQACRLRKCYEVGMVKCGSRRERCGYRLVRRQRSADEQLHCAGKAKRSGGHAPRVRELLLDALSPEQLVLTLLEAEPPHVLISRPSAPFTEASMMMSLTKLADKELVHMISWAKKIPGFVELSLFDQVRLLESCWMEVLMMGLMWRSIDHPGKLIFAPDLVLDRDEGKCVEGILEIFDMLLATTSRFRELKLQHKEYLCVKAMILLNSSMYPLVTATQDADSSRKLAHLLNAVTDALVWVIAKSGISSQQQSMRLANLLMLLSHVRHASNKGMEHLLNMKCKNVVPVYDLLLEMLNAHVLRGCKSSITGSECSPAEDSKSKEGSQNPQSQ
# Source text: as §1
# The specificity of peptide-nuclear receptor interaction was analyzed (Fig. 8) using the mammalian two-hybrid system. Experimental design is the same as in figure 2 except that either progesterone receptor (PRB-VP16), estrogen receptor beta (ERβ-VP16), glucocorticoid receptor (GR-VP16) or thyroid receptor beta (TRβ-VP16) was tested.
# ERα = molecular target: T4, ERα (Homo sapiens, UniProt P03372); assay: Disruption of ER mediated transcriptional activity, C3-Luc reporter in HepG2 cells (Example 4.4); settings: Gal4-peptide fusion; for block of the partial agonist activity of tamoxifen: 4-OH tamoxifen activated ER; for inhibition of the ability of estradiol to activate transcription: estradiol (10 nM) activated ER
# T4 sequence (P03372 1-595): T1 sequence (P03372 1-595)
# Source text: Then HepG2 cells were transfected as above except that expression vectors for Gal4-peptide fusions were included as indicated in 10B. […] Increasing amounts of input plasmid for each Gal4-peptide fusion is also shown with the resulting transcriptional activity presented as % activation of control.
"Peptide Interactions with ER Alpha, beta-galactosidase units, value ([1]; 4-hydroxy Tamoxifen) [MOD/min/mg]","Peptide Interactions with ER Alpha, beta-galactosidase units, value ([1]; Estradiol) [MOD/min/mg]","Peptide Interactions with ER Alpha, beta-galactosidase units, value ([1]; No Addition) [MOD/min/mg]","Peptide Interactions with ER Alpha, beta-galactosidase units, value ([1]; Tamoxifen Citrate) [MOD/min/mg]",block of the partial agonist activity of tamoxifen (ERα),inhibition of the ability of estradiol to activate transcription (ERα),block of estradiol mediated transcription (ERα),Sequence,interaction with ERα (normalized luciferase response) (ERα-VP16),interaction with ERβ [2]
20100,30983,1224,8933,efficiently block,up to 50%,,SSLTSRDFGSWYASR [α II],"interacts with the receptor under all conditions with the apo-receptor and ICI 182,780 bound receptor showing the least activity",None of the receptors tested interact significantly
,,,,is not,up to 50%,,SSNHQSSRLIELLSR [α/β I],interacts with ER in the presence of estradiol and somewhat with the apo-receptor,interact with the αβ I peptide in the presence of the appropriate agonist
4128,648,548,1005,efficiently block,,inability,SSPGSREWFKDMLSR [α/β V],interact almost exclusively with the tamoxifen bound receptor,bound ERβ only in the presence of tamoxifen
3194,605,381,600,efficiently block,,inability,SSWDMHQFFWEGVSR [α/β III],interact almost exclusively with the tamoxifen bound receptor,None of the receptors tested interact significantly
